# Source: US20260193348A1 (ANTENGENE BIOLOGICS, published 2026)
# Where two headings read alike, the source gives them in different places.
# How the values were obtained:
# GPRC5D on MM.1S cells [1] = target: T1, GPRC5D on MM.1S cells (human, UniProt Q9NZD1 1-345); test: cell-based or functional assay
# GPRC5D on MM.1S cells [2] = target: T1, GPRC5D on MM.1S cells; test: FACS on MM.1S cells
# Description: (§1) The binding affinities of the generated humanized Fab-scFv-Fab bispecific antibodies were determined by FACS analysis. […] (a) Jurkat cells were washed by Staining Buffer (PBS+1% BSA) in round bottom 96-well plate. [0833] (b) Antibody dilutions and cells were added to each well, incubated at 4 degrees for 1 hour. [0834] (c) Cells were spined down at 300 g for 3 minutes, and the supernatants were discarded. [0835] (d) Cells were washed with Staining Buffer. […] (e) Step (d) was repeated and the cells were incubated for 0.5 hours at 4 degrees with secondary antibody in Staining Buffer. [0837] (f) After incubation, step (d)-(e) were repeated. […] (g) Staining Buffer was added and fluorescence signals were recorded by flow cytometry.
# The binding affinities of the generated humanized Fab-scFv-Fab bispecific antibodies were determined by FACS analysis. The ATG-Bis-40E9 was used as positive control and hIgG1 isotype was used as negative control. The protocol for FACS analysis is identical to that described in Example 3.2, except that MM.1S cells were used in this example.
# GPRC5D on MM.1S cells [3] = target: T1, GPRC5D on MM.1S cells; test: cell-based or functional assay; remark: listed apart in the source
# CD3 on Jurkat cells = target: T2, CD3 on Jurkat cells (UniProt P07766 23-207; P04234 22-171; P09693 23-182); test: FACS on Jurkat cells
# T2 construct: whole, on cells; On the cell, CD3 stands in the TCR-CD3 complex; also called cluster of differentiation 3
# T2 sequence (P07766 23-207, chain 1 of 3): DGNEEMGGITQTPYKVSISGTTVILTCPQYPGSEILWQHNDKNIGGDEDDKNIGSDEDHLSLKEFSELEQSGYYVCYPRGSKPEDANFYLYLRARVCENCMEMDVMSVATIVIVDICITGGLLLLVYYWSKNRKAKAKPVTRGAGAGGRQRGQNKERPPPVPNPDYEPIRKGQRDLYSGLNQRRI
# T2 sequence (P04234 22-171, chain 2 of 3): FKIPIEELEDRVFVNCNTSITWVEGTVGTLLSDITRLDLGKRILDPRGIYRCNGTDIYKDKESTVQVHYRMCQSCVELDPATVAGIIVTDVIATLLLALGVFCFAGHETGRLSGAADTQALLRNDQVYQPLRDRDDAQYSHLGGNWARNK
# T2 sequence (P09693 23-182, chain 3 of 3): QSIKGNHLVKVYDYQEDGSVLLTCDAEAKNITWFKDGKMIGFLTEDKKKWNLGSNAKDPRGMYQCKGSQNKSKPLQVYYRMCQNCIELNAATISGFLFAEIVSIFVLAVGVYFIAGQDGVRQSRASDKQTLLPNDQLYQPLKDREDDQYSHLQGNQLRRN
# Description: as §1
# The binding affinities of the generated humanized Fab-scFv-Fab bispecific antibodies were determined by FACS analysis. The ATG-Bis-40E9 described in Example 1 was used as positive control and hIgG1 isotype was used as negative control. The protocol for FACS analysis is described in Example 3.2 above.
# [4] = target: T3, CD3 (Cluster of Differentiation 3 protein), human, on T cells / Jurkat cells (human, UniProt P07766 23-207; P04234 22-171; P09693 23-182); test: FACS, CD3+ T cells isolated from normal donors
# T3 construct: whole, on cells; part of the TCR-CD3 complex; also called human CD3
# T3 sequence (P07766 23-207, chain 1 of 3): as the sequence (P07766 23-207, chain 1 of 3) above
# T3 sequence (P04234 22-171, chain 2 of 3): as the sequence (P04234 22-171, chain 2 of 3) above
# T3 sequence (P09693 23-182, chain 3 of 3): as the sequence (P09693 23-182, chain 3 of 3) above
# Description: To evaluate the binding affinity of the generated chimeric bispecific antibody to T cells, the isolated CD3⁺ T cells were stained by antibodies and the binding affinity was determined by FACS analysis. The protocol of FACS analysis is described as follows: [0785] (a) CD3⁺ T cells were isolated from normal donors. [0786] (b) The isolated CD3⁺ T cells were washed by Staining Buffer (PBS+1% BSA) in round bottom 96-well plate. […] (c) Antibody dilutions were added to each well and mixed with the CD3+ T cells, incubated at 4 degrees for 1 hour. […] (d) Cells were spined at 300 g for 3 minutes, then the supernatants were discarded. [0789] (e) Cells were washed with Staining Buffer. [0790] (f) Step (d) was repeated, and the cells were incubated with secondary antibody in Staining Buffer for 0.5 hours at 4 degrees. [0791] (g) After incubation, step (d)-(e) were repeated. [0792] (h) Cells were resuspended in Staining Buffer and fluorescence signals were recorded by flow cytometry.
# [5] = target: T4, GPRC5D (G-protein coupled receptor family C group 5 member D), human, on multiple myeloma cell lines (human, UniProt Q9NZD1 1-345); test: cell-based or functional assay
# T4 sequence (Q9NZD1 whole entry): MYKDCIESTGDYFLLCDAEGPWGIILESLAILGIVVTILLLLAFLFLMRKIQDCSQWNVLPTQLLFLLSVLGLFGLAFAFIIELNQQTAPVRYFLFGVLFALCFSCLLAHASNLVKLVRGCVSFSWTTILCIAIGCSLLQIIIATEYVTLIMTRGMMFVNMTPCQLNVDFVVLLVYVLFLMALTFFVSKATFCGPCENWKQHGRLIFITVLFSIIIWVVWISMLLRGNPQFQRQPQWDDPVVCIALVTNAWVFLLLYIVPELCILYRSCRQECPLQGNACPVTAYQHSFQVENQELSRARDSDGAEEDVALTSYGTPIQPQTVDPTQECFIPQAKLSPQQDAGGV
# [6] = target: T3, CD3 (Cluster of Differentiation 3 …); test: FACS, Jurkat cells, antibody at 50 µg/ml
# How it was run: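 Jurkat cells in PBS + 1% BSA were incubated with humanized Fab-scFv-Fab bispecific antibody dilutions for 1 hour at 4 degrees, then washed. A secondary antibody was applied for 0.5 hours at 4 degrees. Binding was read as fluorescence by flow cytometry.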
# [7] = target: T4, GPRC5D (G-protein coupled receptor …); test: cell-based or functional assay; remark: listed apart in the source
# [8] = target: T4, GPRC5D (G-protein coupled receptor …); test: cell-based or functional assay; remark: listed apart in the source
# [9] = target: T4, GPRC5D (G-protein coupled receptor …); test: FACS, MM.1S cells
# Description: as §1
# (§2) The binding affinities of the generated humanized Fab-scFv-Fab bispecific antibodies to different multiple myeloma cell lines were evaluated by FACS analysis. The protocol for FACS analysis is identical to that described in Example 3.2, except that different cells were used in this example, i.e., multiple myeloma cell lines (MM.1S, […], L363 and RPMI 8226) were used in this example.
# [10] = target: T4, GPRC5D (G-protein coupled receptor …); test: cell-based or functional assay; remark: listed apart in the source
# [11] = target: T4, GPRC5D (G-protein coupled receptor …); test: FACS, MOLP-8 cells
# Description: as §1, §2
# T1 sequence (Q9NZD1 whole entry): as above
Binder,EC50 [4],Top (MFI) [4],"IC50 (nM), T-Cell Dependent Cytotoxicity, L363 [5]","IC50 (nM), T-Cell Dependent Cytotoxicity, MM.1S [5]","IC50 (nM), T-Cell Dependent Cytotoxicity, MOLP-8 [5]","IC50 (nM), T-Cell Dependent Cytotoxicity, RPMI8226 [5]",MFI (50 µg/ml) [6],"IC50 (nM), T-Cell Dependent Cytotoxicity, MM.1S [7]","IC50 (nM), T-Cell Dependent Cytotoxicity, MOLP-8 [7]","IC50 (nM), T-Cell Dependent Cytotoxicity, RPMI8226 [7]","Top (%), T-Cell Dependent Cytotoxicity, MM.1S [7]","Top (%), T-Cell Dependent Cytotoxicity, MOLP-8 [7]","Top (%), T-Cell Dependent Cytotoxicity, RPMI8226 [7]","EC50 (nM), luciferase assay, L363 [8]","EC50 (nM), luciferase assay, MM.1S [8]","EC50 (nM), luciferase assay, MOLP-8 [8]","EC50 (nM), luciferase assay, RPMI8226 [8]","Top (RLU), luciferase assay, L363 [8]","Top (RLU), luciferase assay, MM.1S [8]","Top (RLU), luciferase assay, MOLP-8 [8]",also measured
Bis-108+147-S54R.H (bispecific antibody) chain 1: EVQLVQSGAEVKKPGASVKVSCKASGYTFTSYVIHWVRQAPGQGLEWMGYFNPYNDGTKYNEEFKGRVTLTSDKSTSTAYMELRSLRSDDTAVYYCARGGVRRYFDVWGQGTTVTVSS chain 2: EVQLVQSGAEVKKPGSSVKVSCKASGYTFTSYWMHWVRQAPGQCLEWMGNINPRSGATNYNEKFKSRVTLTVDKSTSTAYMELSSLRSEDTAVYYCARDRSSQYYFDYWGQGTTVTVSSGGGGSGGGGSGGGGSGGGGSDIVMTQSPDSLAVSLGERATINCKSSQSLLNSRSRKNYLAWYQQKPGQPPKLLIYWASTRESGVPDRFSGSGSGTDFTLTISSLQAEDVAVYYCTQSYTLRTFGCGTKVEIK chain 3: DIQMTQSPSSLSASVGDRVTITCRASQDIGSNLNWLQQKPGKAIKRLIYATFGLDSGVPSRFSGSRSGTDFTLTISSLQPEDFATYYCQQYASFPYTFGGGTKVEIK,,,,,,,,,,,,,,,,,,,,,"IC50 of T-cell dependent cytotoxicity on MM.1S cells (GPRC5D on MM.1S cells [1]): 1.25 nM; Top (%) target cell killing, MM.1S cells (GPRC5D on MM.1S cells [1]): 110%; EC50 (GPRC5D on MM.1S cells [2]): 3.7 nM; Top signal (GPRC5D on MM.1S cells [2]): 2620 MFI; EC50, Jurkat-NFAT-Luciferase assay in the presence of MM.1S cells (GPRC5D on MM.1S cells [3]): 0.24 nM; Top RLU, Jurkat-NFAT-Luciferase assay in the presence of MM.1S cells (GPRC5D on MM.1S cells [3]): 362 RLU; Top signal (CD3 on Jurkat cells): 293 MFI"
"ATG-Bis-40E9 (bispecific antibody, Fab-scFv-Fab (2+1) format: two anti-GPRC5D Fabs, one anti-CD3 scFv; LALA (L234A, L235A, EU); also called chimeric 2+1 bispecific antibody; 108C4C12 Fab x 40-C12-C10-E9 scFv; not shown: CH1; CL; CH2-CH3 with L234A, L235A; heavy chain constant region with L234A, L235A) heavy: EVQLQQSGPELVKPGASVKMSCKASGYTFTSYVIHWVKQKTGQGLEWIGYFNPYNDGTKYNEEFKGKATLTSDKSSNTAYMELNSLTSDDSAVYFCARGGVRRYFDVWGAGTTVTVSS heavy (part 1 of 2): EVQLQQSGPELVKPGASVKMSCKASGYTFTSYVIHWVKQKTGQGLEWIGYFNPYNDGTKYNEEFKGKATLTSDKSSNTAYMELNSLTSDDSAVYFCARGGVRRYFDVWGAGTTVTVSS heavy (part 2 of 2): GGGGSGGGGSEVQLQLSGPELVKPGASVKMSCKASGYTFSSYVIHWVKQKPGQGLEWIGYINPYNDVIKYNEKFKGKATLTSDKSSSTAYMELSSLTSEDSAVYYCARDSYYSYDGFAYWGQGTLVTVSAGGGGSGGGGSGGGGSGGGGSQIVLTQSPAIMSASPGEKVTMTCSASSSVSYMHWYQQKSGTSPKRWIYDTSKLASGVPARFSGSGSGTSYSLTISSMEAEDAATYYCQQWSSNPPTFGGGTKVEIKGGGGSGGGGS light: DIQMTQSPSSLSASLGERVSLTCRASQDIGSNLNWLQQEPDGTIKRLIYATFGLDSGVPKRFSGSRSGSDYSLTISSLESEDFVDYYCQQYASFPYTFGGGTKLEIK",287 nM,1990 MFI,0.001 nM,0.002 nM,0.001 nM,0.009 nM,490 MFI,0.00641 nM,0.00607 nM,0.0351 nM,81.5%,59%,9%,0.028 nM,0.787 nM,0.0186 nM,0.117 nM,1050 RLU,3550 RLU,826 RLU,"Top (RLU), luciferase assay, RPMI8226 [8]: 776 RLU; EC50 [9]: 11.3 nM; Top (MFI) [9]: 1200 MFI; EC50 (nM), luciferase assay, L363 [10]: 69.4 nM; EC50 (nM), luciferase assay, MM.1S [10]: 0.739 nM; EC50 (nM), luciferase assay, MOLP-8 [10]: 0.374 nM; EC50 (nM), luciferase assay, RPMI8226 [10]: 0.071 nM; EC50 [11]: 0.817 nM; Top (MFI) [11]: 958 MFI"
"RG6234 (bispecific antibody, human IgG1, kappa, L234A L235A, construct per WO2019154890A1; also called benchmark antibody RG6234 (Roche)) heavy 1: EVQLVESGGGLVQPGRSLKLSCAASGFSFSNYGMAWVRQAATKGLEWVASISTGGGNTYYRDSVKGRFIVSRDNAKNTQYLQMDSLRSEDTATYYCTRHDRGGLYWGQGVMVTVSSASTKGPSVFPLAPSSKSTSGGTAALGCLVEDYFPEPVTVSWNSGALTSGVHTFPAVLQSSGLYSLSSVVTVPSSSLGTQTYICNVNHKPSNTKVDEKVEPKSCDKTHTCPPCPAPEAAGGPSVFLFPPKPKDTLMISRTPEVTCVVVDVSHEDPEVKFNWYVDGVEVHNAKTKPREEQYNSTYRVVSVLTVLHQDWLNGKEYKCKVSNKALGAPIEKTISKAKGQPREPQVCTLPPSRDELTKNQVSLSCAVKGFYPSDIAVEWESNGQPENNYKTTPPVLDSDGSFFLVSKLTVDKSRWQQGNVFSCSVMHEALHNHYTQKSLSLSPGK heavy 2: not shown light 1: DIVMTQAPLSVSVTPGESASISCRSSKSLLHSNGITYVYWYFQKPGKSPQVLIYRMSNLASGVPDRFSGSGSETDFTLKISRVEAEDVGIYHCGQLLENPYTFGAGTELELKRTVAAPSVFIFPPSDRKLKSGTASVVCLLNNFYPREAKVQWKVDNALQSGNSQESVTEQDSKDSTYSLSSTLTLSKADYEKHKVYACEVTHQGLSSPVTKSFNRGEC light 2: EVQLLESGGGLVQPGGSLRLSCAASGFTFSTYAMNWVRQAPGKGLEWVSRIRSKYNNYATYYADSVKGRFTISRDDSKNTLYLQMNSLRAEDTAVYYCVRHGNFGNSYVSWFAYWGQGTLVTVSSRTVAAPSVFIFPPSDEQLKSGTASVVCLLNNFYPREAKVQWKVDNALQSGNSQESVTEQDSKDSTYSLSSTLTLSKADYEKHKVYACEVTHQGLSSPVTKSFNRGEC",274 nM,2550 MFI,0.007 nM,0.006 nM,0.002 nM,0.031 nM,836 MFI,0.019 nM,0.00599 nM,0.0899 nM,77.2%,53.4%,8.1%,0.0532 nM,0.0397 nM,0.021 nM,0.0929 nM,1260 RLU,3910 RLU,1060 RLU,"Top (RLU), luciferase assay, RPMI8226 [8]: 616 RLU; EC50 (nM), luciferase assay, L363 [10]: 44 nM; EC50 (nM), luciferase assay, MM.1S [10]: 0.334 nM; EC50 (nM), luciferase assay, MOLP-8 [10]: 0.756 nM; EC50 (nM), luciferase assay, RPMI8226 [10]: 0.047 nM"
